Results as given in FireProtDB (doi:10.1021/bi00102a015).

B1: Cytochrome c2, P00094 (parent)
chain: MKISLTAATVAALVLAAPAFAGDAAKGEKEFNKCKTCHSIIAPDGTEIVKGAKTGPNLYGVVGRTAGTYPEFKYKDSIVALGASGFAWTEEDIATYVKDPGAFLKEKLDDKKAKTGMAFKLAKGGEDVAAYLASVVK

Variants of: B1
Conditions: Rhodobacter capsulatus (strain ATCC BAA-309 / NBRC 16581 / SB1003); pH 7.5; 25 °C; GdnHCl; CD; Tris-HCl 20 mM; NaCl 40 mM; structure 1C2R; whole UniProt chain shown

| Variant | ddG of mutation (higher = less stable) | denaturant m value | denaturant midpoint (higher = more stable) | unfolding free energy |
| --- | --- | --- | --- | --- |
| MKISLTAATVAALVLAAPAFAGDAAKGEKEFNDCKTCHSIIAPDGTEIVKGAKTGPNLYGVVGRTAGTYPEFKYKDSIVALGASGFAWTEEDIATYVKDPGAFLKEKLDDKKAKTGMAFKLAKGGEDVAAYLASVVK [K33D] | 1.1 kcal/mol | 2.8 kcal/mol/M | 1.2 M | 3.3 kcal/mol |
| MKISLTAATVAALVLAAPAFAGDAAKGEKEFNKCKTCHSIIAPDGTEIVKGAETGPNLYGVVGRTAGTYPEFKYKDSIVALGASGFAWTEEDIATYVKDPGAFLKEKLDDKKAKTGMAFKLAKGGEDVAAYLASVVK [K53E] | -0.4 kcal/mol | 3 kcal/mol/M | 1.6 M | 4.8 kcal/mol |
| MKISLTAATVAALVLAAPAFAGDAAKGEKEFNKCETCHSIIAPDGTEIVKGAKTGPNLYGVVGRTAGTYPEFKYKDSIVALGASGFAWTEEDIATYVKDPGAFLKEKLDDKKAKTGMAFKLAKGGEDVAAYLASVVK [K35E] | 0.9 kcal/mol | 2.8 kcal/mol/M | 1.2 M | 3.5 kcal/mol |
| MKISLTAATVAALVLAAPAFAGDAAKGEKEFNKCETCHSIIAPDGTEIVKGAETGPNLYGVVGRTAGTYPEFKYKDSIVALGASGFAWTEEDIATYVKDPGAFLKEKLDDKKAKTGMAFKLAKGGEDVAAYLASVVK [K35E K53E] | 0.8 kcal/mol | 3 kcal/mol/M | 1.2 M | 3.6 kcal/mol |
